What all share (test): SPR; Lge1-CT immobilised on a CM5 chip, Bre1-LR flown over; Biacore 8K, 25°C, 20 mM HEPES (pH 7.5), 200 mM sodium chloride, 0.02% Tween 20
Common to all, as to settings: both partners purified

The target of assay [1] is T1, Bre1-LR (Bre1 residues 227–700, LBD and RING domains), 6× histidine tag (budding yeast, UniProt Q07457 227-700).
T1 construct: two Bre1 polypeptides form the dimeric coiled-coils of the LBD in the crystal structure; also called WT; source: E. coli BL21 Rosetta (DE3), purified (Ni-NTA, heparin, gel filtration)
T1 sequence (looked up): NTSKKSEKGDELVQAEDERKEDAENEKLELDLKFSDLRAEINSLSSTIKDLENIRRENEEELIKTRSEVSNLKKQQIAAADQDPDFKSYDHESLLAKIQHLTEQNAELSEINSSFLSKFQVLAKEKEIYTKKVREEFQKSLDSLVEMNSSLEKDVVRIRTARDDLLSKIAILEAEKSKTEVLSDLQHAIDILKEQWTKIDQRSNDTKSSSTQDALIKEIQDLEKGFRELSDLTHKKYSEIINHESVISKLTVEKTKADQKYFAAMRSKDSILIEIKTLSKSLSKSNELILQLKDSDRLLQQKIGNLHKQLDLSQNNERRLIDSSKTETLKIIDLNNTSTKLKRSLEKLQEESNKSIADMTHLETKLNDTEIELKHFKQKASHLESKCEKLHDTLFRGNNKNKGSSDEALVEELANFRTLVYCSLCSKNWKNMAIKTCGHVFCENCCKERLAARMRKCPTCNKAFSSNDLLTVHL

The next assay addresses T2, Bre1-LR A489N (budding yeast, UniProt Q07457 227-700, A489N).
T2 construct: source: E. coli BL21 Rosetta (DE3), purified (Ni-NTA, heparin, gel filtration)
T2 sequence (looked up): T1 sequence (looked up) with A263N

The next assay has as its target T3, Bre1-LR E378K/E500K (budding yeast, UniProt Q07457 227-700, E378K | E500K).
T3 construct: source: E. coli BL21 Rosetta (DE3), purified (Ni-NTA, heparin, gel filtration)
T3 sequence (looked up): T1 sequence (looked up) with E152K, E274K

The target in a further assay is T4, Bre1-LR K379E (budding yeast, UniProt Q07457 227-700, K379E).
T4 construct: source: E. coli BL21 Rosetta (DE3), purified (Ni-NTA, heparin, gel filtration)
T4 sequence (looked up): T1 sequence (looked up) with K153E

Where a chain is given by its changes, count along the chain named.

B1: Lge1-CT (Lge1 residues 261–332), intein-chitin binding domain (CBD) tag construct (domain or fragment, budding yeast, UniProt Q02796 261-332, looked up)
chain: KNVKKTNNTESECEKAREVFKESDSIDSALEELNLKINSNELELRLLNNQCDKHALNIQLTQEKLDSLLLMQ
notes: Lge1, budding yeast, residues 261-332; residues 268–331 resolved in the electron density; the intein-CBD tag is named on the protein in the pull-down; also called intein-CBD-fused Lge1-CT; intein-CBD-tagged Lge1-CT; source: E. coli BL21 Rosetta (DE3): cleared cell extract on chitin resin (pull-down); purified (chitin, heparin, gel filtration) for ITC and SPR; co-purified with Bre1-LR for the …
Consider B1, for which the Kd in assay [1] is 17.5 nM; with Bre1-LR A489N, 41.1 nM; with Bre1-LR E378K/E500K, 29 nM; with Bre1-LR K379E, 41.3 nM.

The values above are taken from article PMC12802937 (Nucleic Acids Research, 2026).
